From patent US8114412B2, “T. cruzi-derived neurotrophic agents and methods of use therefor” (priority 1999, dated 2012)

Legend:
PC12 cells [1] = test: Trophic factor withdrawal-induced apoptosis of PC12 cells (DAPI/TUNEL); assay type: cell-based, rat; conditions: serum-free RPMI-1640/0.2% BSA, 17 hours, DAPI or TUNEL
Text: PC12 cells were obtained from ATCC (Manassas, Va. (Accession No. CRL-1721)) and cultured on collagen-coated dishes in RPMI 1640 supplemented with 10% horse serum and 5% fetal bovine serum (Greene, L. A. and Tishler, A. S., Proc. Natl. Acad. Sci. USA, 73: 2424-2428 (1976)). For differentiation and survival experiments, cells were washed three times in serum-free RPMI/0.2% BSA, plated in the same medium in collagen-coated plastic dishes at 2×10^5/ml, without and with growth factors, TS, recombinant proteins, synthetic peptides, for the time and concentrations indicated in the Figures.
Cell staining with 4,6-diamino-2-phenylindole (DAPI). Cells were fixed with 4% formaldehyde in PBS for 5 minutes, washed with PBS, stained with 10 μg/ml DAPI (Sigma) for 2 minutes, washed with PBS, and visualized under UV light using a fluorescent microscope. About 300-400 cells were examined under the microscope to determine the percentage of apoptotic cells.
Cell DNA nick end labeling (TUNEL) (Gavrieli, Y., et al., J. Cell. Biol. 119: 493-501 (1992)) assay was performed using a kit purchased from Boehringer Mannheim as described by the manufacturer.
(§1) Protection against apoptosis of PC12 cells in serum-free medium containing a test agent (agent N)(e.g., protection induced by TS, TS fragments, NGF or other growth factors), was calculated by the formula: 100%-[(apoptosis(%) of cells kept in RPMI containing test agent N÷apoptosis (%) of cells kept in RPMI)×100%]. Testing the effect of wortmannin (Sigma) and LY294002 (Sigma) in inhibiting the neuroprotection of TS was performed following the protocol described by others (Yao and Cooper, Science, 267:2003-2006 (1995); D'Mello et al., J. Neurosci 17:1548-1560 (1997)). In brief, PC12 cells were switched from growth medium to RPMI without and with TS or various other growth factors. After 24 hr, wortmannin and LY294002 were added to the cultures. After another 24 hrs, cells were examined for apoptosis by the DAPI assay, as above.

Bcl-2 mRNA in PC12 cells = test: RT-PCR of Bcl-2 gene transcripts in PC12 cells; assay type: cell-based, rat; conditions: TS 2.5 ng/ml, CNTF 50 ng/ml, alone or combined, 17 hours
Description: Total RNA was extracted from PC12 cells by the acid guanidinum isothiocyanate method (Chomchinski, P., et al., Biotechniques 15: 532-535 (1993)) using TRI-reagent (Molecular Research Center, Inc.). cDNA synthesis was performed according to the instruction of the manufacturer (Gibco-BRL). Reverse transcription reactions were carried out for 50 minutes at 42° C. and were heated to 70° C. for 15 minutes to terminate the reaction using a MiniCycler (MJ Research). Samples were cooled to 4° C. and stored at −20° C. until use.
PCR reactions were performed in 50 μl containing 1.5 μl of template DNA (corresponding to cDNA synthesized from 100 ng of total RNA), 1×PCR buffer, 100 μM of deoxynucleotides, 2.5 mM MgCl2, 10 mM DTT, 10 pM of Bcl-2 primers, and 2 U of Taq DNA polymerase (Gibco-BRL). The synthetic DNA primers for the rat Bcl-2 were: 5′-[…]-3′ (SEQ ID NO:8) and 5′-[…]-3′(SEQ ID NO:9) to give a PCR product of 566 bp. The sequences for synthetic GAPDH DNA primers (Wong, H., et al., Anal. Biochem. 223: 251-258 (1994)) were: 5′-[…]-3′ (SEQ ID NO:10) and 5′-[…]-3′ (SEQ ID NO:11) giving a PCR produce of 306 base pairs. Amplifications were carried out in MiniCycler (MJ Research) using following conditions: 98° C. for 5 minutes (initial heat denaturation), 3 cycles of 94° C. for 1 minute, 63° C. for 1 minute, 72° C. for 1.5 minutes; 3 cycles of 94° C. for 1 minutes, 60° C. for 1 minute, 72° C. for 1.5 minutes, followed by 72° C. for 10 minutes. Primers for GAPDH (10 pM) were added at cycle 7 by the “primer-dropping” method. Aliquots of PCR reaction products were separated by electrophoresis in 2% agarose gels (Ultrapure, Gibco-BRL), containing 0.2 μg/ml ethidium bromide. Gels were analyzed by computerized densitometric scanning using Gel doc 1000 (Bio Rad) and Molecular Analyst Software, version 2.1.

PC12 cells [2] = test: Reversal of TS-induced neuroprotection by PI-3 kinase inhibitors in PC12 cells; assay type: cell-based, rat; conditions: RPMI+CNTF 50 ng/ml; similar to RPMI alone
Description: as §1

[3] = Martin et al. 1996; cited from earlier work

B1: CNTF: human ciliary neurotrophic factor; recombinant human and rat CNTF (protein, UniProt P26441 1-200, looked up)
Ciliary neurotrophic factor: MAFTEHSPLTPHRRDLCSRSIWLARKIRSDLTALTESYVKHQGLNKNINLDSADGMPVASTDQWSELTEAERLQENLQAYRTFHVLLARLLEDQQVHFTPTEGDFHQAIHTLLLQVAAFAYQIEELMILLEYKIPRNEADGMPINVGDGGLFEKKLWGLKVLQELSQWTVRSIHDLRFISSHQTGIPARGSHYIANNKKM
- protection of PC12 cells from apoptosis induced by trophic factor withdrawal (PC12 cells [1]): little, if any, protection
- bcl-2 gene expression in PC12 cells (Bcl-2 mRNA in PC12 cells): did not induce bcl-2 gene expression individually
- viability of PC12 cells (PC12 cells [2]): ~33%
- undesirable side effects of administration [3]: muscle atrophy, cachexia and anorexia
